One block for each molecule: values may come before it.
Tests used:
rat PMEL17 = test: Apparent affinity by FACS titration of IgGs on HKB11-rat PMEL17 cells; format: binding; conditions: Alexa Fluor
Protocol: Purified IgGs were titrated on a variety of PMEL17 expressing and PMEL17 non expressing cell lines (for control) to determine EC50 values. Cells were harvested using Accutase, adjusted to ˜4×10^6 cells/ml into FACS buffer (PBS, 3% FCS and 0.02% Na-Azide) and kept on ice to avoid internalization. 15 μl of cell suspension/well were transferred into 384 well V-bottom plates (Greiner, Cat #781280) and incubated with 15 μl of IgGs at different concentrations (most commonly from 200 to 3.5×10−3 nM) for 1 hour at 4° C., gently shaking. Following incubation, cells were washed three times with FACS buffer. After each washing step, cells were centrifuged (250×g, 5 min, 4° C.) and carefully resuspended. […] After 3 washing steps, cells were resuspended in 30 μl of FACS buffer and samples were measured using the IntelliCyt HTFC device. EC50 values were calculated using the Graphpad Prism software. […]
(§1) The cross-specificity of the IgGs was evaluated in does response FACS on G-361 (human melanoma), HKB11-cyno-PMEL17, HKB11-rat PMEL17 and B16-F10 (mouse PMEL17 expressing melanoma) (Table 3). […]

human PMEL17 = target: T1, human PMEL17 (Homo sapiens, UniProt P40967); test: Apparent affinity by FACS titration of IgGs on G-361 melanoma cell line; format: binding; conditions: G-361, PE-labelled detection antibody; read-out: FACS EC50 (nM) G-361 (PE)
T1 construct: G-361 melanoma cell line expresses human PMEL17 at a lower level compared to the HKB11-human PMEL17 overexpressing cell line; endogenous in cells; host or cells: G-361 (human melanoma)
T1 sequence (P40967 25-661): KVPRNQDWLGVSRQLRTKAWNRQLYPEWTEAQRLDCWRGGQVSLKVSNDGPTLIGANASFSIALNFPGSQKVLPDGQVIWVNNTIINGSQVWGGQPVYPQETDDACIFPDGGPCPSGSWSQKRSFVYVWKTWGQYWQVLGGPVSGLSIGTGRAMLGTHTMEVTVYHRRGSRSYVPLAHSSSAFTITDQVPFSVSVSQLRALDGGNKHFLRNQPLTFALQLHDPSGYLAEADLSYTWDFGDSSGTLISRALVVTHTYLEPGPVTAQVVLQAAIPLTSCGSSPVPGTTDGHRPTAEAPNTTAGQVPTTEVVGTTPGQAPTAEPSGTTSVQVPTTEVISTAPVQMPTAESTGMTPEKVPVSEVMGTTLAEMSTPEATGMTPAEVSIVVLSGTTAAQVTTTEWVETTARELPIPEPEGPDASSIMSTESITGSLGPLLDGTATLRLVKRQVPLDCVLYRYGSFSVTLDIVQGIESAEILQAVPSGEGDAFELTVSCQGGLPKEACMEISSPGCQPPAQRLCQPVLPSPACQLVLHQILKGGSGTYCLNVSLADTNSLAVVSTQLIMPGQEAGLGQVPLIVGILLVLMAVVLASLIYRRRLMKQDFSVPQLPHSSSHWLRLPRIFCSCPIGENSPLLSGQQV
Protocol: (§2) Purified IgGs were titrated on a variety of PMEL17 expressing and PMEL17 non expressing cell lines (for control) to determine EC50 values. Cells were harvested using Accutase, adjusted to ˜4×10^6 cells/ml into FACS buffer (PBS, 3% FCS and 0.02% Na-Azide) and kept on ice to avoid internalization. 15 μl of cell suspension/well were transferred into 384 well V-bottom plates (Greiner, Cat #781280) and incubated with 15 μl of IgGs at different concentrations (most commonly from 200 to 3.5×10−3 nM) for 1 hour at 4° C., gently shaking. Following incubation, cells were washed three times with FACS buffer. After each washing step, cells were centrifuged (250×g, 5 min, 4° C.) and carefully resuspended. 15 μl of detection antibody conjugated to PE (PE-conjugated goat anti-human IgG, F(ab′)2 fragment specific, 1:150 in FACS buffer; Jackson Immuno Research, #109-116-097) or Alexa Fluor (Alexa Fluor-conjugated goat anti-human IgG, F(ab′)2 fragment specific, 1:150 in FACS buffer; Jackson Immuno Research, #109-606-097) were added and samples were incubated for 45 minutes to 1 hour on ice in the dark, gently shaking. After 3 washing steps, cells were resuspended in 30 μl of FACS buffer and samples were measured using the IntelliCyt HTFC device. EC50 values were calculated using the Graphpad Prism software. G-361 melanoma cell line expresses human PMEL17 at a lower level compared to the HKB11-human PMEL17 overexpressing cell line, and therefore allows a more precise ranking of the clones depending on their apparent affinity on cells.
as §1

mouse PMEL17 = target: T2, mouse PMEL17 (Mus musculus, UniProt Q60696); test: Apparent affinity by FACS titration of IgGs on B16-F10 melanoma cells; format: binding; conditions: Alexa Fluor
T2 construct: B16-F10 (mouse PMEL17 expressing melanoma); endogenous in cells; host or cells: B16-F10 (mouse melanoma)
T2 sequence (Q60696 24-626): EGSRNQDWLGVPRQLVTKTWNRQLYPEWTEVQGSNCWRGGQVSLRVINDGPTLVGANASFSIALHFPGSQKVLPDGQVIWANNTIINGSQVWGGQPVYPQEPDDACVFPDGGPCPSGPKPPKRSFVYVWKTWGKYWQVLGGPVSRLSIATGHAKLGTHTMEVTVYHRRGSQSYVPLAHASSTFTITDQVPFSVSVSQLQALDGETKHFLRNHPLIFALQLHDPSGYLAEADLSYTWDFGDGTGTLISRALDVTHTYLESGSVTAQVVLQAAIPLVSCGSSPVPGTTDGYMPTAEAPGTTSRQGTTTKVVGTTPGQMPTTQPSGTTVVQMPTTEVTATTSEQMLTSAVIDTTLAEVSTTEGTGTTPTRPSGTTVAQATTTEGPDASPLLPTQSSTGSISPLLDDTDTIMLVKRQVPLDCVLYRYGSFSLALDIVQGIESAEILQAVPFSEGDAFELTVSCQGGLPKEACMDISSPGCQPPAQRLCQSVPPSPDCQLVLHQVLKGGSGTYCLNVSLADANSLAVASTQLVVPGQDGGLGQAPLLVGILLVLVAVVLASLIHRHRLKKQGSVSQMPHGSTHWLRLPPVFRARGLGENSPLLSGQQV
Protocol: as §2
(§3) The cross-specificity of the IgGs was evaluated in does response FACS on G-361 (human melanoma), HKB11-cyno-PMEL17, HKB11-rat PMEL17 and B16-F10 (mouse PMEL17 expressing melanoma) (Table 3). Testing on G-361 was performed using a detection antibody labelled to PE. In contrast, an Alexa-Fluor labelled detection antibody had to be used for testing the candidates on the other cell lines so as to reach detectable signals.

PMEL17 = test: Cross-reactivity (cross-specificity profile) of anti-PMEL17 IgGs in dose response FACS; format: binding; parameters: key: h/c/r/m: human/cyno/rat/mouse; h/c/r: human/cyno/rat; h/c/(m): human/cyno/mouse; h/c: human/cyno; conditions: h human, c cyno, r rat, m mouse
Protocol: as §3
IgGs were classified into several epitope groups according to their cross-specificity profiles.

UACC-62 = test: FACS titration of IgGs on UACC-62 cells; format: binding; conditions: UACC-62, PE-labelled detection antibody
Protocol: as §2

human PMEL = target: T3, human PMEL (Homo sapiens, UniProt P40967); test: SPR epitope binning (competitive binding assay, Biacore T200); conditions: FIG. 20B-20C
T3 sequence (P40967 25-661): T1 sequence (P40967 25-661)
Text: SPR was used to assess epitope binning for anti-PMEL antibodies on a T200 Biacore instrument (catalog #28975001, GE Healthcare Life Sciences).
Surface Plasmon Resonance (SPR) is a technique to measure bimolecular interactions in real-time in a label free environment. Molecules are immobilized on a sensor surface over which a sample solution flows. The interaction between the immobilized molecule and the flowing sample causes a refractive index change. The refractive index change is an altering of the angle at which reduced intensity polarized light is reflected from the supporting glass plane. This angle change is caused by binding or dissociation of molecules from the sensor surface and is proportional to the mass of bound material and is recorded by the instrument in a sensorgram. […] From the association and dissociation event responses, an association rate (ka), a dissociation rate (kd) and an overall affinity (KD) are determined. For epitope binning, KDs are not determined.
In the first step, G1 LC 3J and 17A9 antibodies were directly immobilized onto a CM5 chip surface via Amine Coupling to achieve approximately 2000RU respectively on Fc2 and Fc3. […] The immobilized antibodies on Fc2 and Fc3 are the base antibodies in the experiment […]
The data was analyzed using the Biacore T200 Evaluation Software version 3.0.

EC50 (rat PMEL17): > 100 nM | EC50 (human PMEL17): 2.8 nM | EC50 (mouse PMEL17): > 100 nM
B1: Y010417: anti-PMEL17 antibody (IgG) (antibody, V domains shown)
VH: EVQLVQSGAEVKKPGESLKISCKGSGYSFTSYWIGWVRQMPGKGLEWMGIIYPGDSDTRYSPSFQGQVTISADKSISTAYLQWSSLKASDTAMYYCARGSSAASGLSGDLWGQGTLVTVSS
VL: DIQMTQSPSSLSASVGDRVTITCRASQSISSYLNWYQQKPGKAPKLLIYAASSLQSGVPSRFSGSGSGTDFTLTISSLQPEDFATYYCQQDYYSPFTFGQGTKVEIK
Cross spe profile (based on C14 detection ab) (PMEL17): h/c | UACC-62 (PE) (UACC-62): Negative

epitope binning (human PMEL): bind to different epitopes
B2: G1 LC 3J: anti-PMEL antibody G1 with 3J light chain (antibody, V domains shown)
VH: QVQLVQSGAEVKKPGSSVKVSCKASGGTFSDYAITWVRQAPGQGLEWMGGIIPIFGTANYAQKFQGRVTITADESTSTAYMELSSLRSEDTAVYYCAREGGLLTDISYSRYWFAYWGQGTLVTVSS
VL: SYELTQPLSVSVALGQTARITCSGDALRDKFVYWYQQKPGQAPVLVIYDDNNRPSGIPERFSGSNSGNTATLTISRAQAGDEADYYCQSWDHSYSLVVFGGGTKLTVL

Source: US11779649B2, “Antibodies to PMEL17 and conjugates thereof” (Novartis AG, priority 2018, dated 2023)
